In this assay the target is SARS-CoV nucleocapsid protein, recombinant (SARS-CoV, UniProt P59595 1-422). Nature of the assay: SPR. (In general: In SPR one partner is held on a chip, and binding of the other changes the refractive index at the surface.)

The source of these data is publication PMC9142731 (2022).

SARS-CoV nucleocapsid protein, recombinant, sequence (P59595 whole entry): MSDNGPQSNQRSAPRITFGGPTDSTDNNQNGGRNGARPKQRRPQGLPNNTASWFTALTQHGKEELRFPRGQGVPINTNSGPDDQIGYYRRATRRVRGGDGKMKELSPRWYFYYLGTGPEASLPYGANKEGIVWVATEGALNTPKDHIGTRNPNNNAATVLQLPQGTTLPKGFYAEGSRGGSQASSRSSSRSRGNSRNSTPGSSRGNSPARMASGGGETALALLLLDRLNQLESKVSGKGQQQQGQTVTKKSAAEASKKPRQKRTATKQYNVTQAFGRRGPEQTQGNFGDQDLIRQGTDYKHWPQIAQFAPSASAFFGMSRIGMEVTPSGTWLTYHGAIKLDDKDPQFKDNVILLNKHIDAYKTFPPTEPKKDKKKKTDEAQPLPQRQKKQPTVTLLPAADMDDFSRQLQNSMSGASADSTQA

B1: P301-F7 (antibody, V domains shown)
VH: QLQLQESGPGLVKPSETLSLTCTVSGGSISSTSYYWGWIRQPPGKGLEWIGSIYYSGSTYYNPSLKSRVTISVDTSKNQFSLKLSSVTAADTAVYYCARFSLYCSSTSCYENWFDPWGQGTLVTVSS
VL: QSVLTQPPSVSAAPGQKVTISCSGSSSNIGNNYVSWYQQLPGTAPKLLIYDNNKRPSGIPDRFSGSKSGTSATLGITGLQTGDEADYYCGTWDSSLSAGQVVFGGGTKLTVL
As to B1, the Kd (commonly the equilibrium constant for the complex coming apart) was found to be 33.4 nM.
